A short description of the data set: VAS self-rated pain perception of bolus delivery and daily infusion. The class given is in vivo, human (T1DM patients). The settings on record: ID compared to SC infusion. Here is the method:
Patients rated bolus-associated pain immediately after insulin delivery for both meals and again each evening at approximately 6 PM after completion of the morning dosing and sampling cycles to rate overall discomfort from the infusion process during the preceding 24 h. The visual analog scale (VAS) utilized a standard validated 10-cm scale anchored by “no pain” (score 0) and “severe pain” (score 10) without inclusion of additional numerical or verbal descriptors to avoid clustering of scores around intermediate points. Scores were measured as absolute distant from origin. Within 1 h prior to device removal, patients completed a non-validated user acceptability questionnaire consisting of a set of standard multiple choice closed-ended questions covering acceptability of sensations for infusion sets application and operation, set satisfaction, willingness to use the respective infusion set again, and set preference. Responses were restricted to a 5-point scale generally ranging from extreme agreement/satisfaction to extreme disagreement/satisfaction depending upon the question. […]
Pharmacokinetic parameters were derived from baseline corrected blood insulin data. […] PK and PD endpoints were analyzed using a linear mixed effects model (ANOVA) with sequence, application route, meal, and day as factors along with interactions. […]

Take insulin aspart: the VAS self-rated pain result was “statistically greater for ID compared to SC infusion”.

These data come from paper PMC4529466, “Intradermal insulin infusion achieves faster insulin action than subcutaneous infusion for 3-day wear” (Drug Delivery and Translational Research, 2015).
